Measurements from patent publication US20080306007A1, “AGENTS FOR PROPHYLAXIS OR TREATMENT OF NEUROLOGICAL RELATED DISEASES AND CONDITIONS” (Newcastle Innovation Limited, priority 2007, published 2008).
Changes are numbered by the printed parent chain. In names and notes the source's numbering stands.

B1: DynI^dmA-GFP: Transfected GFP-tagged dynamin I double mutant, Ser-774 and Ser-778 to Ala (non-phosphorylatable) (protein)
chain: MGNRGMEDLIPLVNRLQDAFSAIGQNADLDLPQIAVVGGQSAGKSSVLENFVGRDFLPRGSGIVTRRPLVLQLVNSTTEYAEFLHCKGKKFTDFEEVRLEIEAETDRVTGTNKGISPVPINLRVYSPHVLNLTLVDLPGMTKVPVGDQPPDIEFQIRDMLMQFVTKENCLILAVSPANSDLANSDALKIAKEVDPQGQRTIGVITKLDLMDEGTDARDVLENKLLPLRRGYIGVVNRSQKDIDGKKDITAALAAERKFFLSHPSYRHLADRMGTPYLQKVLNQQLTNHIRDTLPGLRNKLQSQLLSIEKEVDEYKNFRPDDPARKTKALLQMVQQFAVDFEKRIEGSGDQIDTYELSGGARINRIFHERFPFELVKMEFDEKELRREISYAIKNIHGIRTGLFTPDLAFEATVKKQVQKLKEPSIKCVDMVVSELTSTIRKCSEKLQQYPRLREEMERIVTTHIREREGRTKEQVMLLIDIELAYMNTNHEDFIGFANAQQRSNQMNKKKTSGNQDEILVIRKGWLTINNIGIMKGGSKEYWFVLTAENLSWYKDDEEKEKKYMLSVDNLKLRDVEKGFMSSKHIFALFNTEQRNVYKDYRQLELACETQEEVDSWKASFLRAGVYPERVGDKEKASETEENGSDSFMHSMDPQLERQVETIRNLVDSYMAIVNKTVRDLMPKTIMHLMINNTKEFIFSELLANLYSCGDQNTLMEESAEQAQRRDEMLRMYHALKEALSIIGDINTTTVSTPMPPPVDDSWLQVQSVPAGRRAPTSAPTPQRRAPAVPPARPGSRGPAPGPPPAGSALGGAPPVPSRPGASPDPFGPPPQVPSRPNRAPPGVPSRSGQASPSRPESPRPPFDL
modifications: left off: large carriers
B2: DynI-PB2-GFP: GFP-tagged dynamin I with Arg-772 and Arg-773 mutated to Glu; fails to bind syndapin I (protein)
chain: B1 chain with R772E, R773E, A774S, A778S
modifications: left off: large carriers
B3: DynI-3B-GFP: GFP-tagged dynamin I point mutant P793A (site 3); fails to bind endophilin I (protein)
chain: B1 chain with A774S, A778S, P793A
modifications: left off: large carriers
B4: DynI^dmE-GFP: Transfected GFP-tagged dynamin I double mutant, Ser-774 and Ser-778 to Glu (pseudo-phosphorylation) (protein)
chain: B1 chain with A774E, A778E
modifications: left off: large carriers
B5: DynI^WT-GFP: Transfected GFP-tagged wild-type dynamin I (protein, UniProt Q05193 1-864, looked up)
Dynamin-1: MGNRGMEDLIPLVNRLQDAFSAIGQNADLDLPQIAVVGGQSAGKSSVLENFVGRDFLPRGSGIVTRRPLVLQLVNATTEYAEFLHCKGKKFTDFEEVRLEIEAETDRVTGTNKGISPVPINLRVYSPHVLNLTLVDLPGMTKVPVGDQPPDIEFQIRDMLMQFVTKENCLILAVSPANSDLANSDALKVAKEVDPQGQRTIGVITKLDLMDEGTDARDVLENKLLPLRRGYIGVVNRSQKDIDGKKDITAALAAERKFFLSHPSYRHLADRMGTPYLQKVLNQQLTNHIRDTLPGLRNKLQSQLLSIEKEVEEYKNFRPDDPARKTKALLQMVQQFAVDFEKRIEGSGDQIDTYELSGGARINRIFHERFPFELVKMEFDEKELRREISYAIKNIHGIRTGLFTPDMAFETIVKKQVKKIREPCLKCVDMVISELISTVRQCTKKLQQYPRLREEMERIVTTHIREREGRTKEQVMLLIDIELAYMNTNHEDFIGFANAQQRSNQMNKKKTSGNQDEILVIRKGWLTINNIGIMKGGSKEYWFVLTAENLSWYKDDEEKEKKYMLSVDNLKLRDVEKGFMSSKHIFALFNTEQRNVYKDYRQLELACETQEEVDSWKASFLRAGVYPERVGDKEKASETEENGSDSFMHSMDPQLERQVETIRNLVDSYMAIVNKTVRDLMPKTIMHLMINNTKEFIFSELLANLYSCGDQNTLMEESAEQAQRRDEMLRMYHALKEALSIIGDINTTTVSTPMPPPVDDSWLQVQSVPAGRRSPTSSPTPQRRAPAVPPARPGSRGPAPGPPPAGSALGGAPPVPSRPGASPDPFGPPPQVPSRPNRAPPGVPSRSGQASPSRPESPRPPFDL
modifications: GFP tag
notes: Transfected GFP-tagged wild-type dynamin I
B6: DynI-9A-GFP: GFP-tagged dynamin I R838E (site 9) mutant; abolishes amphiphysin I binding (protein, UniProt Q05193 1-864, looked up, variant R838E)
Dynamin-1: B5 Dynamin-1 with R838E
modifications: GFP tag

Experiments:
[1] = test system: cerebellar granule neurons (CGNs); assay: FM4-64 SV turnover in transfected cerebellar granule neurons (Example 1); format: cell-based, rat; conditions: for total SV recycling pool (FM4-64): two sequential KCl stimuli
Procedure: Primary cerebellar granule neuron (CGN) cultures were prepared from 7-day old Sprague-Dawley rat pups as previously described (Tan et al. 2003). In brief, neurons were plated on poly-D-lysine coated glass coverslips at a density of 1.5×10^5 cells/coverslip. Neurons were cultured in MEM containing Earle's salts plus 10% (v/v) foetal calf serum, 25 mM KCl, 30 mM glucose, 2 mM glutamine, 100 U/ml penicillin and 100 μg/ml streptomycin at 37° C., in a humidified atmosphere of 5% CO2. The culture medium was supplemented with 10 μM cytosine arabinoside after 24 hours. Transfections were carried out using an established calcium phosphate precipitation protocol. CGNs were transiently transfected with 1.5 μg of DNA between 7-10 days in vitro and were used 48 h later.
The effect of overexpression of dynamin I-GFP constructs on SV recycling in CGNs was monitored using the styryl dye FM4-64 (Molecular Probes). The extent of FM4-64 loading was quantified by normalising the fluorescence value at the start of stimulation to an arbitrary value and monitoring the total decrease on unloading with a dual KCl stimulus. The rate of FM4-64 unloading (as a measure of SV exocytosis) was estimated by determining the time taken for individual nerve terminals to lose 50% of their dye content on stimulation of unloading. These values were normalised to untransfected nerve terminals within the same field of view. SV exocytosis and recycling was also monitored using the pH-sensitive VAMP-GFP (synaptopHluorin). Dynamin constructs linked to mCerulean rather than to GFP were used in this part of the study. CGNs were co-transfected with synaptopHluorin and either DynI^WT-mCerulean, DynI^dmA-mCerulean or Dyn^dmE-mCerulean and stimulated with 50 mM KCl for 20 sec. The evoked synaptopHluorin response was recorded at 500 nm excitation and 510-550 nm emission (mCerulean fluorescence was not detectable at this wavelength). Co-expression of dynamin I was confirmed by recording at 430 nm excitation. Responses were analysed by calculating the increased fluorescence of synaptopHluorin over baseline for individual nerve terminals and then normalising the maxima and minima to 1 and 0.
To show the key role of the phosphorylation sites by independent methods in cultured neurons their role in SV turnover in nerve terminals of CGNs transfected with dynamin I-GFP was examined. SV turnover in neurons transfected with DynI^WT-GFP was indistinguishable from that in untransfected neurons (FIG. 6a-c). […] The extent of HM4-64 accumulation and thus SV turnover, was quantified from the change in fluorescence (AF) by unloading the CGN terminals with two sequential KCl stimuli (S1 and S2) (FIG. 6j). The total SV recycling pool was reduced by approximately 70% in CGNs transfected with DynI^dmA-GFP (28±3.5% of control) and 40% with DynI^dmE-GFP (64.4±6.2% of control) (FIG. 6k). However, transfection of DynI^WT-GFP had no detectable effect (100.1±5.2% of control, FIG. 6k).

[2] = test system: cerebellar granule neurons (CGNs); assay: FM4-64 synaptic vesicle recycling in transfected CGNs (Example 2); format: cell-based, rat; conditions: single 50 mM KCl stimulus
Procedure: The effect of overexpression of dynamin constructs on synaptic vesicle recycling in CGNs was monitored using the styryl dye FM4-64. Neurons were removed from the culture medium and left to repolarise for 10 min in incubation medium (170 mM NaCl, 3.5 mM KCl, 0.4 mM KH2PO4, 20 mM TES (N-tris[hydroxy-methyl]-methyl-2-aminoethane-sulphonic acid), 5 mM NaHCO3, 5 mM glucose, 1.2 mM Na2SO4, 1.2 mM MgCl2, 1.3 mM CaCl2, pH 7.4). Neurons were then loaded with FM4-64 by evoking SV recycling using KCl stimulation medium (incubation medium supplemented with 50 mM KCl and 10 μM FM4-64, 50 mM NaCl being removed to maintain osmolarity) for 2 min. Cells were washed with incubation medium and mounted on an epifluorescence microscope (Olympus IX81). After 10 min, FM4-64 was unloaded from the cells by exposure to a 30 s pulse of stimulation medium. Transfected neurons were visualised using a Olympus Plan-Apochromat x40 objective at 480 nm excitation and a band-pass emission filter of 515-555 nm. FM4-64 unloading was monitored at 555 nm excitation and a long pass emission filter of 600 nm. The decrease in fluorescence intensity of FM4-64 loaded nerve terminals on stimulation was visualised using a Hammamatsu Orca-ERG CCD digital camera (Hammamatsu City, Japan) and Metamorph 6.3 imaging software (Molecular Devices, Downingtown, Pa.). The extent of FM4-64 unloading was quantified by normalising the fluorescence value at the start of stimulation to an arbitrary value and monitoring the total decrease in fluorescence on unloading with the KCl stimulus. The kinetics of FM4-64 unloading were estimated by normalising the start and completion of unloading to 1 and 0 respectively. Other methods employed in this study are as described in Example 1.
Synaptic vesicle turnover in neurons transfected with DynI-WT-GFP was indistinguishable from that in untransfected neurons. […] The extent of synaptic vesicle turnover was quantified by unloading the terminals with a single 50 mM KCl stimulus, which is considered mild. The total synaptic vesicle recycling pool was unaffected in CGNs transfected with DynI-WT-GFP, while after transfection with DynI-2B-GFP it was reduced. The inhibition can be solely accounted for by an effect on SV endocytosis, since there was no effect on the kinetics of dye unloading. Next, the effects of DynI-PB2-GFP and DynI-3B-GFP on SVE were examined. These two mutants were chosen since they specifically fail to bind syndapin I and endophilin I, respectively, providing a clear distinction between them.
Again, there was no effect on exocytosis, indicating an inhibition of SVE.

Molecule	reduction of total SV recycling pool / SV turnover [1]	total SV recycling pool (FM4-64) [1]	total synaptic recycling pool (FM4-64) [2]
B1	approximately 70%	28±3.5 % of control	–
B2	–	–	59.5±4.3 % of control
B3	–	–	56.8±4.4 % of control
B4	~40%	64.4±6.2 % of control	–
B5	–	100.1±5.2 % of control	94.0±5.1 % of control
B6	–	–	71.9±2.7 % of control
